Data: PMC11879086, “Identification and characterization of a human MORC2 DNA binding region that is required for gene silencing” (Nucleic Acids Research, 2024)

Key:
[1] = test system: MBP-MORC2 wild-type (Homo sapiens); test: pull-down; conditions: FA/EMSA: 50 mM NaCl, 3 mM MgCl2, 20 mM Na-HEPES pH 7.4, 1 mM TCEP, 10% glycerol, 0.025 mM ZnCl2, 50 ug/ml BSA, room temperature; 1 nM nucleic acid (FA) or 20 nM
[2] = molecular target: T1, MORC2 dephosphorylated (wild-type) (Homo sapiens) (UniProt Q9Y6X9); test: fluorescence anisotropy; conditions: apo; FA/EMSA: 50 mM NaCl, 3 mM MgCl2, 20 mM Na-HEPES pH 7.4, 1 mM TCEP, 10% glycerol, 0.025 mM ZnCl2, 50 ug/ml BSA, room temperature; 1 nM nucleic acid (FA) or 20 nM
T1 sequence: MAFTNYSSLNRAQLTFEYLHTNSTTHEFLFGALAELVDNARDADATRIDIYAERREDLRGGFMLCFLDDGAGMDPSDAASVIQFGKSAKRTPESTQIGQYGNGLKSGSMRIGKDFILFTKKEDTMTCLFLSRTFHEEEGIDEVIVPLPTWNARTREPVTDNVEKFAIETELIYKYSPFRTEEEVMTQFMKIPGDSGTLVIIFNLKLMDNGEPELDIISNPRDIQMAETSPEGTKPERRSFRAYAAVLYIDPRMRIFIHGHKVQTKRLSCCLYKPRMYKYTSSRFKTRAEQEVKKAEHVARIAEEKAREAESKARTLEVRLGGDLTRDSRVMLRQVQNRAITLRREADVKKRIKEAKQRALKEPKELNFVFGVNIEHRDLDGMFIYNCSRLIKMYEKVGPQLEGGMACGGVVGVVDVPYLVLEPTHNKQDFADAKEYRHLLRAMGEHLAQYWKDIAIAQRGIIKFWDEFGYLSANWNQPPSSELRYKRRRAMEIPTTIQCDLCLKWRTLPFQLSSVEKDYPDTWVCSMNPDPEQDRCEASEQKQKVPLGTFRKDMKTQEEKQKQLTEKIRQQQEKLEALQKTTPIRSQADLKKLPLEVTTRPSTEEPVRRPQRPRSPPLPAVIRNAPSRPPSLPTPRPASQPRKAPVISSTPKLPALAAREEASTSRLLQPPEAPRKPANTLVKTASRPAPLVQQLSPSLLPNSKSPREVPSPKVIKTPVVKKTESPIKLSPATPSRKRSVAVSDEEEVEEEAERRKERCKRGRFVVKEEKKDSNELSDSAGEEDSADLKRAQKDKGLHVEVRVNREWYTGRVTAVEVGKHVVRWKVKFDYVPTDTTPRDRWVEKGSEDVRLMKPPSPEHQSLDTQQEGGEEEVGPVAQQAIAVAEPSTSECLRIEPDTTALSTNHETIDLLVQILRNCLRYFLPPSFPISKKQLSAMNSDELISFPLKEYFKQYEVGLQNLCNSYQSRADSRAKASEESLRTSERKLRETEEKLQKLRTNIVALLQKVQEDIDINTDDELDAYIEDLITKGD

[3] = molecular target: T2, MORC2 dephosphorylated (wild-type) (Homo sapiens, UniProt Q9Y6X9 1-1032); test: fluorescence anisotropy; apo ('5 or less'); FA/EMSA: 50 mM NaCl, 3 mM MgCl2, 20 mM Na-HEPES pH 7.4, 1 mM TCEP, 10% glycerol, 0.025 mM ZnCl2, 50 ug/ml BSA, room temperature; 1 nM nucleic acid (FA) or 20 nM DNA (EMSA); conditions: protein: recombinant; tags: tag removed by TEV; chain copies: 2; label: 5'-6-FAM; blunt
T2 sequence: T1 sequence

[4] = molecular target: T2, MORC2 dephosphorylated (wild-type); test: fluorescence anisotropy; apo; FA/EMSA: 50 mM NaCl, 3 mM MgCl2, 20 mM Na-HEPES pH 7.4, 1 mM TCEP, 10% glycerol, 0.025 mM ZnCl2, 50 ug/ml BSA, room temperature; 1 nM nucleic acid (FA) or 20 nM DNA (EMSA); conditions: protein: recombinant, tags: tag removed by TEV, chain copies: 2, label: 5'-6-FAM
[5] = molecular target: T2, MORC2 dephosphorylated (wild-type); test: fluorescence anisotropy; apo; Hill slope 0.6; FA/EMSA: 50 mM NaCl, 3 mM MgCl2, 20 mM Na-HEPES pH 7.4, 1 mM TCEP, 10% glycerol, 0.025 mM ZnCl2, 50 ug/ml BSA, room temperature; 1 nM nucleic acid (FA) or 20 nM DNA (EMSA); conditions: protein: recombinant; tags: tag removed by TEV; chain copies: 2; label: 5'-6-FAM on oligo 3; four-way junction of 4 strands
[6] = molecular target: the molecule itself; test: SEC-MALS; coiled coil 3, 1.5 mg/ml, 150 mM NaCl, 3 mM MgCl2, 20 mM Na-HEPES pH 7.4, 0.5 mM TCEP, 1.5% glycerol, 0.025 mM ZnCl2; Wyatt 010 column
[7] = molecular target: the molecule itself; test: SEC-MALS; full-length MORC2, 2 mg/ml, 150 mM NaCl, 3 mM MgCl2, 20 mM Na-HEPES pH 7.4, 0.5 mM TCEP, 1.5% glycerol, 0.025 mM ZnCl2, without AMP-PNP; Wyatt 030 column

pUC19 linear
binding signal (fold less than circular) [1]: 30

ATATCGATGTATATATCTGACACGTGCCTGGAGACTAGGGAGTAATCCCCTTGGCGGTTAAAACGCGGGGGACAGCGCGTACGTGCGTTTAAGCGGTGCTAGAGCTGTCTACGACCAATTGAGCGGCCTCGGCACCGGGATTCTGATAT (double strand) [Nucleosome on 2-601-2 DNA]
Kd [2]: 16 nM

B1: High AT 35mer dsDNA (dsDNA)
DNA 1: CATCATCAAAGACCAAAAGTAGATAAAACCACAAA
DNA 2: TTTGTGGTTTTATCTACTTTTGGTCTTTGATGATG
Kd [3]: < 5 nM

B2: Random 35mer ssRNA (ssRNA)
RNA: AUAGGGUCCAUCAGAAUUCGGAUGAACUCGGUGUG
Kd [4]: 49 ± 6 nM

B3: Random 65mer dsDNA (dsDNA)
DNA 1: ATTCTCCAGGGCGGCCGCGTATAGGGTCCATCAGAATTCGGATGAACTCGGTGTGAAGAAAGATC
DNA 2: GATCTTTCTTCACACCGAGTTCATCCGAATTCTGATGGACCCTATACGCGGCCGCCCTGGAGAAT
Kd [3]: < 5 nM

B4: 149 bp Widom 601 dsDNA (2-601-2) (dsDNA)
DNA 1: ATATCGATGTATATATCTGACACGTGCCTGGAGACTAGGGAGTAATCCCCTTGGCGGTTAAAACGCGGGGGACAGCGCGTACGTGCGTTTAAGCGGTGCTAGAGCTGTCTACGACCAATTGAGCGGCCTCGGCACCGGGATTCTGATAT
DNA 2: ATATCAGAATCCCGGTGCCGAGGCCGCTCAATTGGTCGTAGACAGCTCTAGCACCGCTTAAACGCACGTACGCGCTGTCCCCCGCGTTTTAACCGCCAAGGGGATTACTCCCTAGTCTCCAGGCACGTGTCAGATATATACATCGATAT
Kd [3]: < 5 nM

B5: Random 35mer ssDNA (ssDNA)
DNA: ATAGGGTCCATCAGAATTCGGATGAACTCGGTGTG
Kd [4]: 51 ± 9 nM

B6: Cruciform DNA (structured_DNA)
DNA 1: CCCTATAACCCCTGCATTGAATTCCAGTCTGATAA
DNA 2: GTAGTCGTGATAGGTGCAGGGGTTATAGGG
DNA 3: AACAGTAGCTCTTATTCGAGCTCGCGCCCTATCACGACTA
DNA 4: TTTATCAGACTGGAATTCAAGCGCGAGCTCGAATAAGAGCTACTGT
Kd [5]: 78 ± 12 nM

B7: Random 25mer dsDNA (dsDNA)
DNA 1: TCCATCAGAATTCGGATGAACTCGG
DNA 2: CCGAGTTCATCCGAATTCTGATGGA
Kd ([4]; blunt): 21 ± 2 nM

B8: MORC2 coiled coil 3 (residues 900-1032) (domain or fragment, human, UniProt Q9Y6X9 900-1032, looked up)
chain: ALSTNHETIDLLVQILRNCLRYFLPPSFPISKKQLSAMNSDELISFPLKEYFKQYEVGLQNLCNSYQSRADSRAKASEESLRTSERKLRETEEKLQKLRTNIVALLQKVQEDIDINTDDELDAYIEDLITKGD
notes: also called CC3; isolated MORC2 C-terminus; source: E. coli BL21 (DE3) RIL, purified (HisTrap, TEV cleavage, S75 SEC); not shown: His6, N-terminal, cleaved
stoichiometry N [6]: 2

B9: full-length human MORC2 (dephosphorylated, wild-type) (natural protein, UniProt Q9Y6X9 1-1032, looked up)
chain: T1 sequence
notes: Cloned into vector 438-B (N-terminal His6-TEV) and into 438-C (N-terminal His6-MBP-TEV); Heterogeneous phosphorylation from insect cells was removed by phosphatase treatment; also called wild-type MORC2; full-length MORC2; not shown: His6, N-terminal, cleaved
stoichiometry N [7]: 2

B10: Random 45mer dsDNA (dsDNA)
DNA 1: GCCGCGTATAGGGTCCATCAGAATTCGGATGAACTCGGTGTGAAG
DNA 2: CTTCACACCGAGTTCATCCGAATTCTGATGGACCCTATACGCGGC
Kd ([4]; blunt): 11 ± 3 nM
